Assay [1] has as its target T1, soluble, recombinant IGF-1 receptor (Homo sapiens, UniProt P08069).
T1 construct: soluble, recombinant IGF-1 receptor
Briefly: Solid phase receptor binding assay, IGF-1R/IGF-1 system (specificity). The following applies: Eu-IGF-1 binding to IGF-1 receptor, FIG. 7B. As for the experimental part: (§1) Solid phase receptor binding assays. Ten compounds selected from Table 3 (NCI compounds) were tested for their ability to modulate the binding of europium-labelled IL-6 to soluble, recombinant IL-6 receptor (A) or the binding of europium-labelled IGF-1 to soluble, recombinant IGF-1 receptor (B) in a microplate-based format. Binding to the receptor is measured by time resolved fluorescence (TRF) as a % of control.
In order to examine specificity, the compounds were also assayed against the IGF receptor system in an identical manner.

Assay [2] addresses T2, human soluble interleukin 6 receptor α-chain (hsIL6Rα) and hsgp130 (Homo sapiens, UniProt P08887).
T2 construct: human soluble interleukin 6 receptor α-chain (hsIL6Rα)
T2 sequence (P08887 20-355 limits assumed): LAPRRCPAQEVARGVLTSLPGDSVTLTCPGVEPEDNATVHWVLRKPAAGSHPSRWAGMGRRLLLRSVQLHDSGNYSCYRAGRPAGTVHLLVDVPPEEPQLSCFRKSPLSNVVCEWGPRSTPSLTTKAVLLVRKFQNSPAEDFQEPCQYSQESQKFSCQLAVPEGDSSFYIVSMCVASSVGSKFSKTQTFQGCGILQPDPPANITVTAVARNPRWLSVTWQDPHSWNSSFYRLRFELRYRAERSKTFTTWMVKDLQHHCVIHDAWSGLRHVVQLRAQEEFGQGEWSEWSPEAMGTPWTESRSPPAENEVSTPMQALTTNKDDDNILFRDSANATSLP
Briefly: High capacity screening assay: binding of europium-labelled human IL6 to hsIL6Rα and immobilised hsgp130. Particulars: Eu-IL-6 binding by time resolved fluorescence as % of control, FIG. 7A.
Description: Compounds designed according to the methods of the present invention may be assessed by a number of in vitro and in vivo assays of hormone function. For example, the identification of IL-6 receptor antagonists of may be undertaken using a solid-phase receptor binding assay. Potential antagonists may be screened for their ability to inhibit the binding of europium-labelled IL-6 receptor ligands to soluble, recombinant IL-6 receptor in a microplate-based format. Europium is a lanthanide fluorophore, the presence of which can be measured using time-resolved fluorometry. The sensitivity of this assay matches that achieved by radioisotopes, measurement is rapid and is performed in a microplate format to allow high-sample throughput, and the approach is gaining wide acceptance as the method of choice in the development of screens for receptor agonists/antagonists (see Apell et al., J. Biomolec. Screening 3:19-27, 1998: Inglese et al., Biochemistry 37:2372-2377, 1998).
as §1
Ten of the compounds listed in Table 3 were tested for their ability to modulate binding of IL-6 to IL-6R/gp130. The high throughput screening assay used for this purpose detects the binding of europium-labelled human IL6 (Eu-hIL6) to human soluble interleukin 6 receptor α-chain (hsIL6Rα) and hsgp130 immobilised on the surface of wells of a microtitre plate. The protocol followed was essentially as follows: […]
The fractions were assayed for europium by diluting 10,000-fold in 200 μL of DELFIA enhancement solution and measuring europium fluorescence. […] The concentration of Eu-IL6 was determined from the absorbance at 280 nm (0.5 AU/mg/mL) and the labelling stoichiometry based on a molecular mass of 21,300. […]

The target of another assay is T3, IL-6R (Homo sapiens, UniProt P08887).
T3 construct: endogenous in cells; host or cells: human myeloma U266 cells
T3 sequence (P08887 20-468): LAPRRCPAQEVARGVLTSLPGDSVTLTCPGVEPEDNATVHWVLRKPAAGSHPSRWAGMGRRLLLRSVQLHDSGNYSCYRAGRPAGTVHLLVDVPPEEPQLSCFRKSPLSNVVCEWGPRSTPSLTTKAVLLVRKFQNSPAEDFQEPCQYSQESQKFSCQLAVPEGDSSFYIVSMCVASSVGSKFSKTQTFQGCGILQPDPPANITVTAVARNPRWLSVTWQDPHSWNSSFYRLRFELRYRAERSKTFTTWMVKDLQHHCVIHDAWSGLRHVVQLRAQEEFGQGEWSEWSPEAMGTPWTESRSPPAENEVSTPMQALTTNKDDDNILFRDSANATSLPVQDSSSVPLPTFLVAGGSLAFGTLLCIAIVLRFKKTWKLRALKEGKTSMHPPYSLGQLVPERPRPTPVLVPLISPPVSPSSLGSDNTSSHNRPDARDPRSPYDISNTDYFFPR
The following applies: human myeloma U266 cells, low-affinity binding; cited from earlier work.

The next assay relates to IL-6. Particulars: cited from earlier work; for Binding: IL-6 binding of IL-6R mutant, relative to wild type.
The subject of another assay is gp130 signalling. Particulars: cited from earlier work; for Signalling: gp130 signalling of IL-6R mutant, relative to wild type.

Changes are numbered by the printed parent chain.

T1 sequence (P08069 31-736): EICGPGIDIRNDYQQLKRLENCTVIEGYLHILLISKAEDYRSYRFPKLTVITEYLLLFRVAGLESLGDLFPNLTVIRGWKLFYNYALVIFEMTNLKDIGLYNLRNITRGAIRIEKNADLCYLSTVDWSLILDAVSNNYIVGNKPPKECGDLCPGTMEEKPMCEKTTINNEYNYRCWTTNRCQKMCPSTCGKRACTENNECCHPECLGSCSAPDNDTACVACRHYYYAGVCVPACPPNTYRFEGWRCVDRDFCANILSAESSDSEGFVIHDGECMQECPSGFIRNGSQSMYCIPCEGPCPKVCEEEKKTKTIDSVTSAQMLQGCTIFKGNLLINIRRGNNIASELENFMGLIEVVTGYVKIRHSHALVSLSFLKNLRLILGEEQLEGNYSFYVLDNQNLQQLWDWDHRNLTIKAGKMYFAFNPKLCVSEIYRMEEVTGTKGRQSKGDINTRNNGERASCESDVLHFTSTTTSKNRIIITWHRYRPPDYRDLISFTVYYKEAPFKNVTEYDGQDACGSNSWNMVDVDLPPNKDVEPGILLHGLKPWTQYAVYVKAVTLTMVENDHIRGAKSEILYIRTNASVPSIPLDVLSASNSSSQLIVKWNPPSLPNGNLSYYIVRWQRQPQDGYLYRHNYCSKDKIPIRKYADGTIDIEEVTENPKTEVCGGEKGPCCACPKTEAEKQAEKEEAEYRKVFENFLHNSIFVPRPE
T1 sequence (P08069 741-935): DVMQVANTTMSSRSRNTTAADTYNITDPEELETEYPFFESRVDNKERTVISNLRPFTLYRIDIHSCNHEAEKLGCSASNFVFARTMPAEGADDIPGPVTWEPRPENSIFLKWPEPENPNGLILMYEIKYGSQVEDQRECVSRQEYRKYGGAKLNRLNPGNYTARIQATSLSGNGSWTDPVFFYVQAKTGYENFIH

For `O=C(C[n+]1ccc2ccccc2c1)c1ccc(-c2ccccc2)cc1` [compound 17791, 1-[1,1′-biphenyl]-4-yl-2-(2^5-isoquinolin-2-yl)ethanone], the “specificity against the IGF-1R/IGF-1 system” value in assay [1] is listed as “specifically”. Also, the “effect on IL-6 binding to IL-6R/gp130 (antagonist or agonist)” value in assay [2] is recorded as “agonists”.
The matching figures for `Nc1c(C(=O)Nc2ccc3c(c2)C(=O)c2ccccc2C3=O)ccc2c1C(=O)c1ccccc1C2=O` [compound 39914, 1-amino-N-(9,10-dioxo-9,10-dihydro-2-anthracenyl)-9,10-dioxo-9,10-dihydro-2-anthracenecarboxamide]: “specifically” and “antagonist”.
The like results for `O=C(O)c1ccccc1C(=O)Nc1cc2c(cc1Br)-c1ccccc1C2=O` [compound 56681, 2-(((3-bromo-9-oxo-9H-fluoren-2-yl)amino)carbonyl)benzoic acid] were, in that order, “specifically” and “agonists”.
As to “IL-6: multifunctional cytokine, natural ligand of the IL-6 receptor”, the Kd with IL-6R is roughly 1 nM.

B1: C192: IL-6R with C192 mutated to alanine (protein, UniProt P08887 20-468, looked up, variant C192A)
Interleukin-6 receptor …: T3 sequence (P08887 20-468) with C192A
B1: the “binding of IL-6 to IL-6R (in words)” value in the assay with IL-6 (mutated to alanine) is given as “slightly increased”. Also, the “signalling (in words)” value in the assay on gp130 signalling (mutated to alanine) was “slightly increased”.

B2: F-Y mutant: IL-6R F-Y mutant at F168 (protein, UniProt P08887 20-468, looked up, variant F168Y)
Interleukin-6 receptor …: T3 sequence (P08887 20-468) with F168Y
As to B2, the Signalling result in the assay with gp130 signalling is recorded as “mutant signals at 50%”.

B3: H261: IL-6R H-I mutation at H261 (protein, UniProt P08887 20-468, looked up, variant H261I)
Interleukin-6 receptor …: T3 sequence (P08887 20-468) with H261I
Consider B3, for which, in the assay on IL-6, the Binding was 115%. The Signalling with gp130 signalling is recorded as 10%.

B4: W214: IL-6R W-Q mutant at W214 (protein, UniProt P08887 20-468, looked up, variant W214Q)
Interleukin-6 receptor …: T3 sequence (P08887 20-468) with W214Q
For the molecule B4, in the assay on IL-6, the Binding is reported as 70%. In addition, in the assay with gp130 signalling, the Signalling was greater than 150%.

B5: D262: IL-6R D-G mutant at D262 (protein, UniProt P08887 20-468, looked up, variant D262G)
Interleukin-6 receptor …: T3 sequence (P08887 20-468) with D262G
For the molecule B5, the Binding in the assay on IL-6 is 30%. Further, the Signalling in the assay with gp130 signalling was less than 10%.

B6: V259: IL-6R V-N mutant at V259 (protein, UniProt P08887 20-468, looked up, variant V259N)
Interleukin-6 receptor …: T3 sequence (P08887 20-468) with V259N
Take B6: the Binding with IL-6 is given as 40%. Moreover, the Signalling in the assay on gp130 signalling was 140%.

B7: R231: IL-6R RL-SI double mutant at R231 and L232 (protein, UniProt P08887 20-468, looked up, variant R231S L232I)
Interleukin-6 receptor …: T3 sequence (P08887 20-468) with R231S, L232I
B7: in the assay on IL-6, the Binding was 0%.

B8: E278: IL-6R EF-AI double mutant at E278 and F279 (protein, UniProt P08887 20-468, looked up, variant E278A F279I)
Interleukin-6 receptor …: T3 sequence (P08887 20-468) with E278A, F279I
Regarding B8, in the assay with IL-6, the Binding was 0%.

B9: I260: IL-6R I-D mutation at I260 (protein, UniProt P08887 20-468, looked up, variant I260D)
Interleukin-6 receptor …: T3 sequence (P08887 20-468) with I260D
As for B9, in the assay with IL-6, the Binding is given as 0%.

B10: F134: IL-6R F-L mutation at F134 (protein, UniProt P08887 20-468, looked up, variant F134L)
Interleukin-6 receptor …: T3 sequence (P08887 20-468) with F134L
Regarding B10, the Binding in the assay with IL-6 is given as greater than 100%. The Signalling with gp130 signalling is given as 70%.

B11: P162: IL-6R PE-LQ double mutant at P162 and E163, loop L3 (protein, UniProt P08887 20-468, looked up, variant P162L E163Q)
Interleukin-6 receptor …: T3 sequence (P08887 20-468) with P162L, E163Q
For the molecule B11, the Binding with IL-6 is less than 10%.

These data come from patent US20070032640A1, “Cytokine receptor” (priority 2001, published 2007).
